# pKi: −log10 of the molar value.
# Legend:
# [1] = target: rat µ opioid receptor (HA-µOR), stably expressed in HEK293 cells (rat) (UniProt P33535)
# [2] = target: rat µ opioid receptor (HA-µOR), stably expressed in HEK293 cells (rat) (UniProt P33535); assay: radioligand binding; competition with 5 nM [3H]-naloxone as tracer; 20 µg total membranes of HEK293-µOR cells in DMEM, 37 °C, 1 h, filtration over GF/C filters; Ki
# UniProt P33535, sequence (P33535 whole entry): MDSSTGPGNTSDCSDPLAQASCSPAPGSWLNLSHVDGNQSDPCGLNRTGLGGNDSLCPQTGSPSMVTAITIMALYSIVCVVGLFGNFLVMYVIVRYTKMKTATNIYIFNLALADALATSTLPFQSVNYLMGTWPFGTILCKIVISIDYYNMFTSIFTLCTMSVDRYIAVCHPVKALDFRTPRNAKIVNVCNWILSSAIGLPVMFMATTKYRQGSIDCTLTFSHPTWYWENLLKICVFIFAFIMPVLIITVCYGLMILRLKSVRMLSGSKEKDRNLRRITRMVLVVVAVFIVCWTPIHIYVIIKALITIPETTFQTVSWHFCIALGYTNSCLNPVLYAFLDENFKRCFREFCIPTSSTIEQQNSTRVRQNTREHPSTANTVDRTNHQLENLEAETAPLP
substance,measurement,setting,value
endomorphin-1 (peptide),"ERK-1/2 phosphorylation after 2.5 min in HEK293-µOR cells (western blot), EC50",[1],5.8 nM
same,"inhibition of FSK (10 µM) induced cAMP accumulation in HEK293-µOR cells, EC50",[1],4.17 nM
same,pKi,[2],7.40

# Source: paper PMC12198324
